For this test, the target named is F-actin (rabbit skeletal actin) (Oryctolagus cuniculus (Rabbit), UniProt P68135). In words: F-actin co-sedimentation (SDS-PAGE/CBB); actin in filamentous form; binding antagonized by Myo5a-MTD (mutually exclusive with exon-G).

From publication PMC11189624 (2024) come the findings set out here.

B1: GST-Mlph-ABD (the GST-tagged ABD of Mlph, residues 401–590) (protein)
chain: SSEDETKPDGTFLGGSPKVCTDTGHMETQERNPRSPGNPARPTKSTDEELSEMEDRVAMTASEVQQAESEISDIESRIAALRAAGLTVKPSGKPRRKSGIPIFLPRVTEKLDRIPKTPPADPDDQAKMPKATTAVPSLLRRKYSPSSQGVDSGSFDRKSVYRGSLTQRNPNGRRGTARHIFAKPVMAQQP
B1: the binding result was “binds”.
